Several values for one entry are separate records, joined by “and”; a condition that tells them apart may be missing. Identical values can stand only once. Entries after “also recorded” stand apart in the source; their conditions may differ.
How the values were obtained:
[1] = system: hLL2-DOTA-yttrium; test: Qualitative binding on size-exclusion HPLC; conditions: SE-HPLC
From the text: (§1) The msAb, LG1×hMN-14 (Fab′×Fab) is shown by the same analysis to bind to hLL2-DOTA-yttrium.

[2] = system: hLL2-DOTA; test: Qualitative binding on size-exclusion HPLC; conditions: SE-HPLC
From the text: as §1

[3] = system: hLL2; test: Qualitative binding on size-exclusion HPLC; conditions: SE-HPLC
From the text: as §1

[4] = system: BSA-DOTA-Yttrium; test: Inhibition of LG1 binding to BSA-DOTA-Yttrium by hLL2-DOTA metal complexes (ELISA); conditions: LG1 0.1 μg/ml; inhibitors 10 to 0.0001 μg/ml
Procedure: The binding of LG1 to BSA-DOTA-Yttrium is also tested in the presence of a panel of hLL2-DOTA metal complexes by incubating LG1 at concentration 0.1 μg/ml with hLL2 and the DOTA-hLL2 conjugates, at concentration 10 to 0.0001 μg/ml, and then adding to ELISA plates coated with BSA-DOTA-Yttrium.

[5] = system: hMN-14-DOTA-yttrium-90; test: Qualitative binding on size-exclusion HPLC; conditions: SE-HPLC
[6] = system: indium-DOTA alone; test: LG1 binding to indium-DOTA alone
From the text: (§2) To determine the essential features that are important to elicit LG1 binding, labeled DOTA (indium-111) was linked to a hapten, via lysine residues, on either the alpha (DOTA-Lys(HSG)-D-Tyr-Lys(HSG)-NH2) or epsilon (biotin-D-Phe-D-Lys[DOTA]) positions of one of the DOTA carboxy groups. LG1 did bind the epsilon-linked indium-DOTA, but not the alpha-linked indium DOTA. […] Thus, the antibody of the current invention is “universal” in that it may bind to any DOTA-metal complex with a pendant N-alkylacetamide group, regardless of the type of metal with which DOTA is complexed. As used herein, the phrases “universal anti-DOTA antibody” or “universally binds” are used to mean an antibody that binds to any DOTA or DOTA-metal complex with a pendant N-alkylacetamide group.

[7] = system: metal complexes of DOTA-hLL2; test: ELISA binding of LG1 to DOTA-hLL2 metal complexes
Procedure: Immunocompetent mice were immunized mice with the macrocyclic chelate DOTA, previously coupled to a humanized immunoglobulin (hIgG). A number of mice were injected and the harvested splenocytes fused with the mouse myeloma cell line SP2/0, according to a standard technique. A total of 1800 clones were screened by ELISA for reactivity with DOTA-conjugated hIgG and hIgG alone. Initially, 25 clones were identified as secreting an IgG that bound to the IgG-DOTA conjugate, but not to the IgG. After being sub-cloned three times, only one hybrid, termed LG1, remained positive and this was adapted to grow in serum-free media. […] LG1 was purified from culture supernatant with a yield of ^˜50 mg/liter of media. […] These metals include gadolinium, gallium, indium, lead, lutetium and yttrium. Additionally, LG1 has a high affinity for a variety of DOTA compounds, showing strong reactivity starting at concentrations of ^˜1 ng/mL (^˜10^−9M), compared to previously produced anti-DOTA antibodies that had affinities measured in microgram amounts.
(§3) LG1 is tested by ELISA for binding to hLL2 and a panel of different metal complexes of DOTA-hLL2. The capture proteins are diluted to 10 μg/ml, and dilutions of LG1 are assayed. Binding is shown using a peroxidase-conjugated goat anti-mouse IgG Fc specific antibody.

[8] = system: hLL2; test: ELISA binding of LG1 to hLL2
Procedure: as §3

[9] = system: indium-111-DOTA-Phe-Lys(HSG)-D-Tyr-Lys(HSG)-NH2; test: Qualitative binding on size-exclusion HPLC
From the text: as §2, §1

[10] = system: biotin-D-Phe-D-Lys(DOTA-indium-111); test: Qualitative binding on size-exclusion HPLC; conditions: epsilon-linked indium-DOTA
From the text: as §2, §1

[11] = Isoelectric focusing of purified LG1; type: physicochemical
Procedure: LG1 cells are expanded and adapted to grow in H-SFM media in serum-free conditions. The antibody LG1 is isolated from the culture media by affinity chromatography on Protein G Sepharose with a yield of ^˜50 mg of IgG per liter of culture media. The purified antibody is analyzed by SDS polyacrylamide electrophoresis, isoelectric focusing, and its isotype is determined by ELISA with a commercially available kit (Southern Biotechnology, Birmingham, Ala.).

B1: LG1: murine monoclonal anti-DOTA antibody, IgG2b with a lambda light chain (antibody, V domains shown)
VH: EVMLVESGGGLVKPGGSLTLSCAASGFTFTAHAMSWVRQTPEKRLEWVATISGGGTYTYFPDSFQGRFTISSDNAKNTLYLQMSSLRSEDTSMYFCTRHGDYRYAFGYWGQGTLVTVSA
VL: VVTQESALTTSPGETVTLTCRSSSGAVTTNNYANWVQEKPDHLFTGLIGGTNNRAPGVPARFSGSLIGDKAALTITGAQTEDEAIYFCALWFSDHWVFGGGTELTVLG
With B1 the “binding to hLL2-DOTA-yttrium” value [1] was “positive binding”, the “binding to hLL2-DOTA” value [2] was “positive binding” and the “binding to hLL2 itself” value [3] was “no binding”. For the same molecule, the “specificity in inhibition assay” value [4] was “anti-DOTA specific, independent of the metal being bound in the chelate ring”, the “binding to hMN-14-DOTA-yttrium-90” value [5] was “positive binding” and the “binding to indium-DOTA alone” value [6] was “did not bind”. The “binding to DOTA-hLL2 and its metal complexes” value ([7]; ELISA, gadolinium, gallium, indium, lead, lutetium, yttrium and no metal) was “Equivalent binding; also recorded: Identical binding; also recorded: bind equally; also recorded: bind equivalently well; also recorded: binds to gadolinium-DOTA complexes as well as it binds to the yttrium-DOTA complexes”, the “concentration at which strong reactivity starts” value ([7]; ELISA, variety of DOTA compounds) was ~1 ng/mL and ~10^−9 M and the Kd ([7]; estimated by ELISA method to determine ligand binding affinity, read-out: affinity towards many different metal-DOTA complexes) was 0.001 to 0.1 nM. The “binding to hLL2” value [8] was “no binding”, the “binding to alpha-amino-linked indium-111-DOTA peptide” value [9] was “no binding and not” and the “binding to biotin-D-Phe-D-Lys(DOTA-indium-111)” value [10] was “positive binding; also recorded: did bind”. For the same molecule, the PI [11] was 5.85-6.85.
